Experimental data from publication PMC8673750 (Cell Reports, 2021).

B1: CV3-25 IgG (antibody, V domains shown)
VH: EVQLVESGAEVKKPGESLKISCKGSGYTFTRYWIGWVRQMPGKGLEWMGIIYPGDSDTRYSPSFQGHVTISADKSISTAYLQWNSLKASDTAMYYCARLPQYCSNGVCQRWFDPWGQGTLVTVSS
VL: EIVLTQSPSSVSASVGDRVTITCRASQGISSWLAWYQQKPGKAPKLLIYAASSLQSGVPSRFSGSGSGTDFTLTISSLQPEDFATYYCQQGNSFPYTFGQGTNLEIK
B2: CV3-1 IgG (antibody, V domains shown)
VH: EVQLVESGPEVKKPGTSVKVPCKASGFTFTSSAVQWVRQARGQRLEWIGWIVVGSGNTNYAQKFQERVTITRDMSTSTAYMELSSLRSEDTAVYYCAAPSCSGGRCYDGFDIWGQGTMVTVSS
VL: not shown

Tests used:
Peptide #288 15-mer = molecular target: T1, Peptide #288 15-mer (SARS-CoV-2, Wuhan-Hu-1); test: ELISA
T1 chain: KEELDKYFKNHTSPD

Peptide #289 11-mer = molecular target: T2, Peptide #289 11-mer (SARS-CoV-2, Wuhan-Hu-1); test: SPR
T2 chain: DKYFKNHTSPD

[1] = molecular target: SARS-CoV-2 S glycoprotein, original Wuhan-Hu-1 strain (WT), full-length, on 293T cells (SARS-CoV-2, UniProt P0DTC2); test: flow cytometry on cells

Binder	binding result (Peptide #288 15-mer)	Kd (Peptide #289 11-mer) [nM]	binding result [1]
B1	binds	~1000	–
B2	–	–	binds
